From paper PMC6131487

What was measured:
[1] = biological target: UL25 of HSV-2 (component of the capsid-vertex-specific component, CVSC) (herpes simplex virus 2 strain MS) (UniProt P89448); experiment: cryo-EM structure; HSV-2 (MS strain) C-capsids assembled in infected Vero cells, detergent-treated (1% NP-40) and purified on sucrose gradients, in PBS; icosahedral plus block-based reconstruction, 3.75 Å overall (CVSC map 4.3 Å, CVSC head about 10 Å)
[2] = biological target: small capsid protein VP26 of HSV-2 (herpes simplex virus 2 strain MS) (UniProt P89458); experiment: as above

Q: With “UL25 of HSV-2 (component of the capsid-vertex-specific component, CVSC) (from UniProt P89448 1-585) (natural protein)” as the substance, how does the stoichiometry N [1] read?
A: 2

Q: Which stoichiometry N [2] does the source give for “small capsid protein VP26 of HSV-2 (from UniProt P89458 1-112) (natural protein)” here?
A: 6
